Common to all, as to experiment: SPR
Background: In SPR one partner is held on a chip, and binding of the other changes the refractive index at the surface.

Experiment [1] addresses LRP1 cluster IV (CR.21–31), recombinant, secreted from Sf9 cells (human, UniProt Q07954 3332-3778).
The target of experiment [2] is T1, LRP1 cluster II (CR.3–10), recombinant, secreted from Sf9 cells (human, UniProt Q07954 852-1182).
T1 sequence: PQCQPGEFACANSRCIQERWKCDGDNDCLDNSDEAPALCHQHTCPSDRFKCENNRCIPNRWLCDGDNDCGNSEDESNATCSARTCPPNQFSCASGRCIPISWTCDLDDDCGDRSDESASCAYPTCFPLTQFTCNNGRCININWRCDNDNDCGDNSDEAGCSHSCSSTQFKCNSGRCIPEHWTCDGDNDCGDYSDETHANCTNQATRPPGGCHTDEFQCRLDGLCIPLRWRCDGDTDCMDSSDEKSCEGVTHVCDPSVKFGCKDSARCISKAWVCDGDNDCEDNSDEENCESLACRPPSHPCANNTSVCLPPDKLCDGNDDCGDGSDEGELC

Experiment [3] addresses T1, LRP1 cluster II (CR.3–10), recombinant, …. The source holds these as a separate data set.
Experiment [4] shares this target. This is another data set of the same source.

Several values for one entry are separate records, joined by “and”; a condition that tells them apart may be missing. Equal values may be shown once. Read-outs that look alike come from different tables or passages of the source.

LRP1 cluster IV (CR.21–31), recombinant, secreted from Sf9 cells, sequence (Q07954 3332-3778): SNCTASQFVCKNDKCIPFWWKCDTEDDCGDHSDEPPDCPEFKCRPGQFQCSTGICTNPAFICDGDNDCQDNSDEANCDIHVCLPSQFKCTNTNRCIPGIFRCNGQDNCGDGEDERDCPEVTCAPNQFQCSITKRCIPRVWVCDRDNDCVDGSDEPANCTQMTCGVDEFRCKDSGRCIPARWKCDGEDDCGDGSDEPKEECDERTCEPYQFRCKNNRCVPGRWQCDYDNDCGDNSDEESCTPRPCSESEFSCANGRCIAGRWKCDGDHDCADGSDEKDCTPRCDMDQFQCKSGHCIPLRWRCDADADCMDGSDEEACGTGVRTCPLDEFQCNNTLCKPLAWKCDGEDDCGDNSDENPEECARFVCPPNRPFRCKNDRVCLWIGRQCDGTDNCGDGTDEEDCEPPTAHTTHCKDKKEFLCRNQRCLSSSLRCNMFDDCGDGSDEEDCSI

B1: RAP (commercial; R&D, 4296-LR) (natural protein, human)
chain: YSREKNQPKPSPKRESGEEFRMEKLNQLWEKAQRLHLPPVRLAELHADLKIQERDELAWKKLKLDGLDEDGEKEARLIRNLNVILAKYGLDGKKDARQVTSNSLSGTQEDGLDDPRLEKLWHKAKTSGKFSGEELDKLWREFLHHKEKVHEYNVLLETLSRTEEIHENVISPSDLSDIKGSVLHSRHTELKEKLRSINQGLDRLRRVSHQGYSTEAEFEEPRVIDLWDLAQSANLTDKELEAFREELKHFEAKIEKHNHYQKQLEIAHEKLRHAESVGDGERVSRSREKHALLEGRTKELGYTVKKHLQDLSGRISRARHNEL
As a reminder, the Kd is the free concentration of one partner at which half of the binding sites on the other are occupied at equilibrium, for simple one-to-one binding. As to B1, the equilibrium dissociation constant (Kd) was 1.4 nM in experiment [1]; 1.97 nM and 2.4 nM in experiment [2]; 2.66 nM in experiment [3]; 1.67 nM and 1.2 nM in experiment [4].

The values above are taken from publication PMC8239462 (The Journal of Biological Chemistry, 2021).
